According to article PMC3317499, “Structural Insights into TIR Domain Specificity of the Bridging Adaptor Mal in TLR4 Signaling” (PLoS ONE, 2012):

T1: GST-TLR4-TIR (TIR domain of human TLR4, residues 670-839, GST fusion) (human, UniProt O00206 670-839)
T1 construct: Toll-like receptor 4 (TLR4), human, TIR domain residues 670-839; pGEX-6P-1 is a bacterial vector; source: E. coli (pGEX-6P-1), purified (glutathione Sepharose 4B, desalting)
T1 sequence (looked up): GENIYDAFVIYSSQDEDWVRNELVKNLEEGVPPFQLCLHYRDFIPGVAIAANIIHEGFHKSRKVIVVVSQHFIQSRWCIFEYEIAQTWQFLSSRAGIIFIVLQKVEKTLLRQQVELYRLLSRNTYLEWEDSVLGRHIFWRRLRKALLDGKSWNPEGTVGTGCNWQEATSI


Tests used:
[1] = molecular target: T2, GST-Mal-TIR (TIR domain of human Mal, residues 79-221, GST fusion) (human, UniProt P58753 79-221); test: pull-down; GST fusion protein and Myc-Mal-TIR mixed with glutathione Sepharose 4B beads, 4°C, 3 hours; washed four times with 20 mM potassium phosphate pH 6.4, 50 mM KCl, 0.1 mM EDTA, 10 mM DTT, 0.5 mM PMSF, 0.5% Triton X-100; SDS-PAGE and anti-Myc immunoblot; conditions: both partners purified
T2 construct: MyD88 adaptor-like protein (Mal, TIRAP), human, UniProtKB P58753, TIR domain residues 79-221; pGEX-6P-1 is a bacterial vector; also called wild type Mal-TIR purified as a GST fusion protein; source: E. coli (pGEX-6P-1), purified (glutathione Sepharose 4B, desalting)

[2] = molecular target: T1, GST-TLR4-TIR (TIR domain of human TLR4, …); test: as above; conditions: both partners purified
[3] = molecular target: T3, GST-MyD88-TIR (TIR domain of human MyD88, residues 148-296, GST fusion) (human, UniProt Q99836 148-296); test: as above; conditions: both partners purified
T3 construct: Myeloid differentiation factor 88 (MyD88), human, TIR domain residues 148-296; pGEX-6P-1 is a bacterial vector; source: E. coli (pGEX-6P-1), purified (glutathione Sepharose 4B, desalting)
T3 sequence (Q99836 148-296): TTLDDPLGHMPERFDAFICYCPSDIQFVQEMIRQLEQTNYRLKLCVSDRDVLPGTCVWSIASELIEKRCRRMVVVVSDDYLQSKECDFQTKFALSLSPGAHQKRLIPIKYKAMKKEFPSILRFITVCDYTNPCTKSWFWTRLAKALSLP

[4] = molecular target: the molecule itself; test: crystal structure; Mal-TIR 79-221, space group P4(3)2(1)2, one molecule per asymmetric unit; dimers by crystallographic packing; 100 mM CHES pH 9.5, 150-300 mM NaCl, 10-20% glycerol, 10 mM DTT; 2.4 Å

Row | Binder | binding result [1] | binding result [2] | binding result [3] | binding result [4]
1 | Myc-Mal-TIR wild type (TIR domain of human MyD88 adaptor-like protein, residues 79-221, double-tagged with His6 and Myc) (domain or fragment, UniProt P58753 79-221, looked up, MyD88 adaptor-like protein (Mal, TIRAP), human, UniProtKB P58753, TIR domain residues 79-221; it replaced the S-tag, thioredoxin and the thrombin-cleavable segment of pET32a; also called wild-type Mal-TIR; TIRAP TIR domain; source: E. coli, purified (Ni-NTA, desalting)) SSRWSKDYDVCVCHSEEDLVAAQDLVSYLEGSTASLRCFLQLRDATPGGAIVSELCQALSSSHCRVLLITPGFLQDPWCKYQMLQALTEAPGAEGCTIPLLSGLSRAAYPPELRFMYYVDGRGPDGGFRQVKEAVMRYLQTLS | binds | binds | binds | –
2 | Mal-TIR (residues 79-221 of human Mal), crystallised form (domain or fragment, UniProt P58753 79-221, looked up, MyD88 adaptor-like protein (Mal, TIRAP), human, UniProtKB P58753, residues 79-221; The structure has disulfide bonds C89-C134 and C142-C174 and a DTT linking Cys91 and Cys157; A selenomethionine form was used for phasing; also called wild-type Mal-TIR; TIR domain of the human Mal molecule; source: E. coli BL21 (DE3) codon plus, purified (Ni-NTA, PreScission digestion, anion exchange)) SSRWSKDYDVCVCHSEEDLVAAQDLVSYLEGSTASLRCFLQLRDATPGGAIVSELCQALSSSHCRVLLITPGFLQDPWCKYQMLQALTEAPGAEGCTIPLLSGLSRAAYPPELRFMYYVDGRGPDGGFRQVKEAVMRYLQTLS | – | – | – | binds
3 | Myc-Mal-TIR D96A (domain or fragment, human, UniProt P58753 79-221, looked up, Mal (TIRAP), human, UniProtKB P58753, TIR domain residues 79-221; source: E. coli, purified (Ni-NTA, desalting)) SSRWSKDYDVCVCHSEEALVAAQDLVSYLEGSTASLRCFLQLRDATPGGAIVSELCQALSSSHCRVLLITPGFLQDPWCKYQMLQALTEAPGAEGCTIPLLSGLSRAAYPPELRFMYYVDGRGPDGGFRQVKEAVMRYLQTLS | – | binds | binds | –
4 | Myc-Mal-TIR S180L (domain or fragment, human, UniProt P58753 79-221, looked up, Mal (TIRAP), human, UniProtKB P58753, TIR domain residues 79-221, natural variant S180L; also called Mal S180L; source: E. coli, purified (Ni-NTA, desalting)) SSRWSKDYDVCVCHSEEDLVAAQDLVSYLEGSTASLRCFLQLRDATPGGAIVSELCQALSSSHCRVLLITPGFLQDPWCKYQMLQALTEAPGAEGCTIPLLLGLSRAAYPPELRFMYYVDGRGPDGGFRQVKEAVMRYLQTLS | – | binds | binds | –
5 | Myc-Mal-TIR D87A (domain or fragment, human, UniProt P58753 79-221, looked up, Mal (TIRAP), human, UniProtKB P58753, TIR domain residues 79-221; source: E. coli, purified (Ni-NTA, desalting)) SSRWSKDYAVCVCHSEEDLVAAQDLVSYLEGSTASLRCFLQLRDATPGGAIVSELCQALSSSHCRVLLITPGFLQDPWCKYQMLQALTEAPGAEGCTIPLLSGLSRAAYPPELRFMYYVDGRGPDGGFRQVKEAVMRYLQTLS | binds | – | – | –
6 | Myc-Mal-TIR E108A (domain or fragment, human, UniProt P58753 79-221, looked up, Mal (TIRAP), human, UniProtKB P58753, TIR domain residues 79-221; source: E. coli, purified (Ni-NTA, desalting)) SSRWSKDYDVCVCHSEEDLVAAQDLVSYLAGSTASLRCFLQLRDATPGGAIVSELCQALSSSHCRVLLITPGFLQDPWCKYQMLQALTEAPGAEGCTIPLLSGLSRAAYPPELRFMYYVDGRGPDGGFRQVKEAVMRYLQTLS | – | – | binds | –
7 | Myc-Mal-TIR L165A (domain or fragment, human, UniProt P58753 79-221, looked up, Mal (TIRAP), human, UniProtKB P58753, TIR domain residues 79-221; source: E. coli, purified (Ni-NTA, desalting)) SSRWSKDYDVCVCHSEEDLVAAQDLVSYLEGSTASLRCFLQLRDATPGGAIVSELCQALSSSHCRVLLITPGFLQDPWCKYQMLQAATEAPGAEGCTIPLLSGLSRAAYPPELRFMYYVDGRGPDGGFRQVKEAVMRYLQTLS | – | – | binds | –
8 | Myc-Mal-TIR F117A (domain or fragment, human, UniProt P58753 79-221, looked up, Mal (TIRAP), human, UniProtKB P58753, TIR domain residues 79-221; source: E. coli, purified (Ni-NTA, desalting)) SSRWSKDYDVCVCHSEEDLVAAQDLVSYLEGSTASLRCALQLRDATPGGAIVSELCQALSSSHCRVLLITPGFLQDPWCKYQMLQALTEAPGAEGCTIPLLSGLSRAAYPPELRFMYYVDGRGPDGGFRQVKEAVMRYLQTLS | – | – | binds | –
9 | Myc-Mal-TIR D96N (domain or fragment, human, UniProt P58753 79-221, looked up, Mal (TIRAP), human, UniProtKB P58753, TIR domain residues 79-221, natural variant D96N; source: E. coli, purified (Ni-NTA, desalting)) SSRWSKDYDVCVCHSEENLVAAQDLVSYLEGSTASLRCFLQLRDATPGGAIVSELCQALSSSHCRVLLITPGFLQDPWCKYQMLQALTEAPGAEGCTIPLLSGLSRAAYPPELRFMYYVDGRGPDGGFRQVKEAVMRYLQTLS | – | – | binds | –
10 | Myc-Mal-TIR R192A (domain or fragment, human, UniProt P58753 79-221, looked up, Mal (TIRAP), human, UniProtKB P58753, TIR domain residues 79-221; source: E. coli, purified (Ni-NTA, desalting)) SSRWSKDYDVCVCHSEEDLVAAQDLVSYLEGSTASLRCFLQLRDATPGGAIVSELCQALSSSHCRVLLITPGFLQDPWCKYQMLQALTEAPGAEGCTIPLLSGLSRAAYPPELAFMYYVDGRGPDGGFRQVKEAVMRYLQTLS | binds | – | – | –
